Consider one substance from publication PMC10269738.

For assay [1], the target named is adhesion G protein-coupled receptor Latrophilin-2 of Vero cells (African green monkey (endogenous in Vero)).
In assay [2] the target is cell-surface annexin A2 of Vero cells (African green monkey (endogenous in Vero)).

For the substance “avian reovirus (ARV) σC protein, strain S1133 (natural protein)”, the virus titer in Vero cells treated with anti-ADGRL2 monoclonal antibody, against untreated samples (log units lower) in assay [1] worked out at 3. In assay [2], this substance registered a virus titer in Vero cells treated with anti-AnxA2 monoclonal antibody, against untreated samples (log units lower) of 2.5.
